Residue numbers refer to the chain shown, from its start.
T1: purified recombinant IFNAR-1 extracellular fragment (human, UniProt P17181 28-436)
T1 construct: extracellular domain; also called soluble IFNAR-1; soluble IFNAR
T1 sequence (looked up): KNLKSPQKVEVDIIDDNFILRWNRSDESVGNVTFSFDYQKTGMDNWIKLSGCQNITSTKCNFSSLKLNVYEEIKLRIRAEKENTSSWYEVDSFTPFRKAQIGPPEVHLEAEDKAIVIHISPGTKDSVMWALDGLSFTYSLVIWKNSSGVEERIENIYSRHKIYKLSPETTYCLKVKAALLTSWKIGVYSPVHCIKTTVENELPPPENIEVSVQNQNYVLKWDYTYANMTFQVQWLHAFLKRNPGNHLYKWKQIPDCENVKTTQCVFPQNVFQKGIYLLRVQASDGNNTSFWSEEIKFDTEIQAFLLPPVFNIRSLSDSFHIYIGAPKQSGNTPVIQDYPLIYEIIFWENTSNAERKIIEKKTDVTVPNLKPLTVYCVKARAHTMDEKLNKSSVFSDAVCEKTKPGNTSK

B1: M3-11 (X = A) heavy chain with K1 light chain (antibody, V domains shown)
VH: EVQLLESGGGLVQPGGSLRLSCAFSGFTLSTSGMGIGWVRQAPGKGLEWVAHIWWDDDKYYNPSLKSRFTISRDTSKNTVYLQMNSLRAEDTAVYYCARNYYPYDAWFDAWGQGTLVTVS
VL: DIQMTQSPSSLSASVGDRVTITCSASSSINSNHLHWYQQKPGKAPKLLIYRTSILASGVPSRFSGSGSGTSFTLTISSLQPEDFATYYCQQGSNIPFTFGQGTKVEIK
notes: Position counted within VH CDR3; also called M3-11 A
B2: M3-11 (X = D) heavy chain with K1 light chain (antibody, V domains shown)
VH: B1 VH with A110D
VL: B1 VL
notes: Position counted within VH CDR3; also called M3-11 D
B3: M3-11 (X = K) heavy chain with K1 light chain (antibody, V domains shown)
VH: B1 VH with A110K
VL: B1 VL
notes: Position counted within VH CDR3; also called M3-11 K
B4: M3-11 (X = L) heavy chain with K1 light chain (antibody, V domains shown)
VH: B1 VH with A110L
VL: B1 VL
notes: the position is counted within CDR3, not on the entry; also called M3-11 L
B5: M3-11 (X = I) heavy chain with K1 light chain (antibody, V domains shown)
VH: B1 VH with A110I
VL: B1 VL
notes: Position counted within VH CDR3; also called M3-11 I
B6: M3-11 (X = C) heavy chain with K1 light chain (antibody, V domains shown)
VH: B1 VH with A110C
VL: B1 VL
notes: Position counted within VH CDR3; also called M3-11 C
B7: M3-11 (X = R) heavy chain with K1 light chain (antibody, V domains shown)
VH: B1 VH with A110R
VL: B1 VL
notes: Position counted within VH CDR3; also called M3-11 R
B8: M3-11 (X = S) heavy chain with K1 light chain (antibody, V domains shown)
VH: B1 VH with A110S
VL: B1 VL
notes: Position counted within VH CDR3; also called M3-11 S
B9: M3-11 (X = H) heavy chain with K1 light chain (antibody, V domains shown)
VH: B1 VH with A110H
VL: B1 VL
notes: Position counted within VH CDR3; also called M3-11 H
B10: M3-11 (X = F) heavy chain with K1 light chain (antibody, V domains shown)
VH: B1 VH with A110F
VL: B1 VL
notes: Position counted within VH CDR3; also called M3-11 F
B11: M3-11 (X = E) heavy chain with K1 light chain (antibody, V domains shown)
VH: B1 VH with A110E
VL: B1 VL
notes: Position counted within VH CDR3; also called M3-11 E
B12: M3-11 (X = Q) heavy chain with K1 light chain (antibody, V domains shown)
VH: B1 VH with A110Q
VL: B1 VL
notes: Position counted within VH CDR3; also called M3-11 Q
B13: M3-11 (X = G) heavy chain with K1 light chain (antibody, V domains shown)
VH: B1 VH with A110G
VL: B1 VL
notes: Position counted within VH CDR3; also called M3-11 G
B14: M3-4 (X = L) heavy chain with K1 light chain (antibody, V domains shown)
VH: B1 VH with P103L, A110Y
VL: B1 VL
notes: the position is counted within CDR3, not on the entry; also called M3-4 L
B15: M3-4 (X = G) heavy chain with K1 light chain (antibody, V domains shown)
VH: B1 VH with P103G, A110Y
VL: B1 VL
notes: Position counted within VH CDR3; also called M3-4 G
B16: M3-4 (X = A) heavy chain with K1 light chain (antibody, V domains shown)
VH: B1 VH with P103A, A110Y
VL: B1 VL
notes: Position counted within VH CDR3; also called M3-4 A
B17: M3-4 (X = H) heavy chain with K1 light chain (antibody, V domains shown)
VH: B1 VH with P103H, A110Y
VL: B1 VL
notes: Position counted within VH CDR3; also called M3-4 H
B18: M3-4 (X = T) heavy chain with K1 light chain (antibody, V domains shown)
VH: B1 VH with P103T, A110Y
VL: B1 VL
notes: Position counted within VH CDR3; also called M3-4 T
B19: M3-4 (X = D) heavy chain with K1 light chain (antibody, V domains shown)
VH: B1 VH with P103D, A110Y
VL: B1 VL
notes: Position counted within VH CDR3; also called M3-4 D
B20: M3-4 (X = M) heavy chain with K1 light chain (antibody, V domains shown)
VH: B1 VH with P103M, A110Y
VL: B1 VL
notes: Position counted within VH CDR3; also called M3-4 M
B21: M3-4 (X = E) heavy chain with K1 light chain (antibody, V domains shown)
VH: B1 VH with P103E, A110Y
VL: B1 VL
notes: Position counted within VH CDR3; also called M3-4 E
B22: M3-4 (X = V) heavy chain with K1 light chain (antibody, V domains shown)
VH: B1 VH with P103V, A110Y
VL: B1 VL
notes: Position counted within VH CDR3; also called M3-4 V
B23: M3-4 (X = W) heavy chain with K1 light chain (antibody, V domains shown)
VH: B1 VH with P103W, A110Y
VL: B1 VL
notes: Position counted within VH CDR3; also called M3-4 W
B24: M3-4 (X = C) heavy chain with K1 light chain (antibody, V domains shown)
VH: B1 VH with P103C, A110Y
VL: B1 VL
notes: Position counted within VH CDR3; also called M3-4 C
B25: M3-4 (X = R) heavy chain with K1 light chain (antibody, V domains shown)
VH: B1 VH with P103R, A110Y
VL: B1 VL
notes: Position counted within VH CDR3; also called M3-4 R
B26: M3-4 (X = N) heavy chain with K1 light chain (antibody, V domains shown)
VH: B1 VH with P103N, A110Y
VL: B1 VL
notes: Position counted within VH CDR3; also called M3-4 N
B27: M3-4 (X = S) heavy chain with K1 light chain (antibody, V domains shown)
VH: B1 VH with P103S, A110Y
VL: B1 VL
notes: Position counted within VH CDR3; also called M3-4 S
B28: M3-4 (X = K) heavy chain with K1 light chain (antibody, V domains shown)
VH: B1 VH with P103K, A110Y
VL: B1 VL
notes: Position counted within VH CDR3; also called M3-4 K
B29: M3-4 (X = I) heavy chain with K1 light chain (antibody, V domains shown)
VH: B1 VH with P103I, A110Y
VL: B1 VL
notes: Position counted within VH CDR3; also called M3-4 I
B30: M3 heavy chain with K1-CD light chain (antibody, human IgG4, V domains shown)
VH: B1 VH with A110Y
VL: DIQMTQSPSSLSASVGDRVTITCSASTSINSNHLNWYQQKPGKAPKLLIYRTSILASGVPSRFSGSGSGTSFTLTISSLQPEDFATYYCQQGSNIPFTFGQGTKVEIKR
notes: also called M3 K1-C/D
B31: M3 heavy chain with K1-D light chain (antibody, human IgG4, V domains shown)
VH: B1 VH with A110Y
VL: B30 VL with T27S
notes: also called M3 K1-D
B32: M3-AB heavy chain with K1-CD light chain (antibody, human IgG4, V domains shown)
VH: B1 VH with M34A, S67A, A110Y
VL: B30 VL
notes: also called M3-A/B K1-C/D
B33: M3 heavy chain with K1-DE light chain (antibody, human IgG4, V domains shown)
VH: B1 VH with A110Y
VL: B30 VL with T27S, G92T
notes: also called M3 K1-D/E
B34: M3 heavy chain with K1-CDE light chain (antibody, human IgG4, V domains shown)
VH: B1 VH with A110Y
VL: B30 VL with G92T
notes: also called M3 K1-C/D/E
B35: M3 heavy chain with K1-E light chain (antibody, human IgG4, V domains shown)
VH: B1 VH with A110Y
VL: B30 VL with T27S, N35H, G92T
notes: also called M3 K1-E
B36: M3-AB heavy chain with K1 light chain (antibody, human IgG4, V domains shown)
VH: B1 VH with M34A, S67A, A110Y
VL: B30 VL with T27S, N35H
notes: also called M3-A/B K1
B37: M3-A heavy chain with K1 light chain (antibody, human IgG4, V domains shown)
VH: B1 VH with M34A, A110Y
VL: B30 VL with T27S, N35H
notes: also called M3-A K1

Biological target: T1, purified recombinant IFNAR-1 …
Experiment: Biacore, maximal association on IFNAR-1 relative to M3K1
Source text: (§1) Pools 4 and 11 were selected for further study and the individual antibodies in each pool were produced and expressed separately. The sequences of these individual antibodies were as shown in SEQ ID NO:12 of FIG. 1F and SEQ ID NO: 13 of FIG. 1G. The data is presented as maximal association relative to M3K1. […]

% activity relative to M3K1 [%]	Binder
93	B1
67	B2
82	B3
75	B4
81	B5
64	B6
220	B7
39	B8
104	B9
93	B10
105	B11
73	B12
63	B13

Biological target: T1, purified recombinant IFNAR-1 …
Experiment: as above
Remark: another data set of the same source
Source text: as §1

% activity relative to M3K1 [%]	Binder
126	B14
114	B15
107	B16
79	B17
103	B18
100	B19
101	B20
128	B21
122	B22
93	B23
123	B24
106	B25
49	B26
110	B27
86	B28
106	B29

Biological target: T1, purified recombinant IFNAR-1 …
Experiment: Biacore, response on IFNAR-1 (flow cell 2) divided by response on anti-human IgG Fc (flow cell 4)
Source text: A series of antibodies were constructed with reduced numbers of potential T-cell epitopes. These included heavy chain variants M3-A and M3-B in which residues were changed in CDR regions and DI M3 in which framework residues were altered. De-immunized light chains were also constructed termed K1-C, K1-D, K1-E and DI K1. The antibodies were expressed and purified before analysis by Biacore. A Biacore chip was used with IFNAR-1 coated on Flow cell 2 at 690 RU and anti-human IgG Fc on flow cell 4 at 5000 RU. Binding of the antibody to IFNAR-1 relative to anti-human IgG Fc was determined by the ratio of response at flow cell 2 divided by flow cell 4 (Fc2/Fc4).

% activity relative to H3K1 [%]	Fc2/Fc4	Binder
57	0.17	B30
30	0.09	B31
23	0.07	B32
–	-0.1	B33
–	-0.1	B34
–	-0.05	B35
43	0.13	B36
17	0.05	B37
